Experimental data: patent US20240084042A1 (Genentech, published 2024)

T1: human KLK5 (human, UniProt Q9Y337 67-293)
T1 construct: also called huKLK5; KLK5 AMC
T1 sequence: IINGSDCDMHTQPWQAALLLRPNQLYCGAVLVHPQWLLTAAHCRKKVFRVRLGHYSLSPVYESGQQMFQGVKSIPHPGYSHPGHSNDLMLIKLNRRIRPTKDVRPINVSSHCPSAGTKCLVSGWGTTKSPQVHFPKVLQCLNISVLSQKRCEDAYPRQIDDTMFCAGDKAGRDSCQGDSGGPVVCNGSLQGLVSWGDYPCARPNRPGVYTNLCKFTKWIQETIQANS

T2: cynomolgus monkey KLK5 (cynomolgus monkey, UniProt Q9Y337 67-293 (human entry))
T2 construct: also called cyno KLK5
T2 chain: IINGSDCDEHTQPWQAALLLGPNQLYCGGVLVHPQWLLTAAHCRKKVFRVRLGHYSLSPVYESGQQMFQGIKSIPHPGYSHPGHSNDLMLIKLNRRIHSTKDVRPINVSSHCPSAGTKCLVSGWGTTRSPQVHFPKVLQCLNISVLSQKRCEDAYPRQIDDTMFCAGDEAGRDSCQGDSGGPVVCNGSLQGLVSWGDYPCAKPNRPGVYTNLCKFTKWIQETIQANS


Legend:
human KLK5 = molecular target: T1, human KLK5; assay: SPR, one-armed monovalent antibody
cynomolgus monkey KLK5 = molecular target: T2, cynomolgus monkey KLK5; assay: SPR, one-armed monovalent antibody

| Binder | Kd (human KLK5) [nM] | koff (human KLK5) [s⁻¹] | kon (human KLK5) [M⁻¹ s⁻¹] | Kd (cynomolgus monkey KLK5) [nM] | koff (cynomolgus monkey KLK5) [s⁻¹] | kon (cynomolgus monkey KLK5) [M⁻¹ s⁻¹] |
| --- | --- | --- | --- | --- | --- | --- |
| OA.hu.9H5.H14L4.G54A.H89V (antibody, V domains shown, One-armed (OA) monovalent anti-KLK5 antibody with a human IgG1 Fc, with Q38E/Q39K; constant regions and dummy Fc chain not specified) VH: EVQLVESGGGLIQPGGSLRLSCAASGFSLSSYGVSWVRKAPGKGLEYVGFIGSAGFAYYASWAKSRFTISRDNSKNTLYLQMNSLRAEDTAVYYCARDDVGGGKSLDIWGQGTLVTVSS VL: DIQMTQSPSSLSASVGDRVTITCQASQSISSYLSWYQEKPGKAPKLLIYSASTLASGVPSRFSGSGSGTDFTLTISSLQPEDFATYYCVQDYTSSNVDNTFGGGTKVEIK | 0.0102 | 3.85e-05 | 3.79e+06 | 0.00893 | 0.00011 | 1.24e+07 |
| OA.hu.9H5.H14L4.G54A.H89V.S95Y (antibody, V domains shown, One-armed (OA) monovalent anti-KLK5 antibody with a human IgG1 Fc, with Q38E/Q39K; constant regions and dummy Fc chain not specified) VH: EVQLVESGGGLIQPGGSLRLSCAASGFSLSSYGVSWVRKAPGKGLEYVGFIGSAGFAYYASWAKSRFTISRDNSKNTLYLQMNSLRAEDTAVYYCARDDVGGGKSLDIWGQGTLVTVSS VL: DIQMTQSPSSLSASVGDRVTITCQASQSISSYLSWYQEKPGKAPKLLIYSASTLASGVPSRFSGSGSGTDFTLTISSLQPEDFATYYCVQDYTSYNVDNTFGGGTKVEIK | 0.0196 | 1.37e-05 | 699000 | 0.0172 | 7.36e-05 | 4.28e+06 |
| OA.hu.9H5.H14L4 (antibody, V domains shown, One-armed (OA) monovalent anti-KLK5 antibody with a human IgG1 Fc, with Q38E/Q39K; constant regions and dummy Fc chain not specified) VH: EVQLVESGGGLIQPGGSLRLSCAASGFSLSSYGVSWVRKAPGKGLEYVGFIGSGGFAYYASWAKSRFTISRDNSKNTLYLQMNSLRAEDTAVYYCARDDVGGGKSLDIWGQGTLVTVSS VL: DIQMTQSPSSLSASVGDRVTITCQASQSISSYLSWYQEKPGKAPKLLIYSASTLASGVPSRFSGSGSGTDFTLTISSLQPEDFATYYCHQDYTSSNVDNTFGGGTKVEIK | 0.254 | 0.000272 | 1.07e+06 | 0.0623 | 0.000697 | 1.12e+07 |

Continued by falling Kd (human KLK5), values first:

| Kd (human KLK5) [nM] | koff (human KLK5) [s⁻¹] | kon (human KLK5) [M⁻¹ s⁻¹] | Kd (cynomolgus monkey KLK5) [nM] | koff (cynomolgus monkey KLK5) [s⁻¹] | kon (cynomolgus monkey KLK5) [M⁻¹ s⁻¹] | Binder |
| --- | --- | --- | --- | --- | --- | --- |
| 0.0502 | 3.94e-05 | 785000 | 0.0361 | 0.000145 | 4.02e+06 | OA.hu.9H5.H14L4.G98Q.S95Y (antibody, V domains shown, One-armed (OA) monovalent anti-KLK5 antibody with a human IgG1 Fc, with Q38E/Q39K; constant regions and dummy Fc chain not specified) VH: EVQLVESGGGLIQPGGSLRLSCAASGFSLSSYGVSWVRKAPGKGLEYVGFIGSGGFAYYASWAKSRFTISRDNSKNTLYLQMNSLRAEDTAVYYCARDDVQGGKSLDIWGQGTLVTVSS VL: DIQMTQSPSSLSASVGDRVTITCQASQSISSYLSWYQEKPGKAPKLLIYSASTLASGVPSRFSGSGSGTDFTLTISSLQPEDFATYYCHQDYTSYNVDNTFGGGTKVEIK |
| 0.0199 | 4.91e-05 | 2.47e+06 | 0.033 | 0.000133 | 4.02e+06 | OA.hu.9H5.H14L4.G98Q.H89V.S95Y (antibody, V domains shown, One-armed (OA) monovalent anti-KLK5 antibody with a human IgG1 Fc, with Q38E/Q39K; constant regions and dummy Fc chain not specified) VH: EVQLVESGGGLIQPGGSLRLSCAASGFSLSSYGVSWVRKAPGKGLEYVGFIGSGGFAYYASWAKSRFTISRDNSKNTLYLQMNSLRAEDTAVYYCARDDVQGGKSLDIWGQGTLVTVSS VL: DIQMTQSPSSLSASVGDRVTITCQASQSISSYLSWYQEKPGKAPKLLIYSASTLASGVPSRFSGSGSGTDFTLTISSLQPEDFATYYCVQDYTSYNVDNTFGGGTKVEIK |
| 0.0162 | 1.6e-05 | 992000 | 0.0175 | 8.44e-05 | 4.82e+06 | OA.hu.9H5.H14L4.G54A.S95Y (antibody, V domains shown, One-armed (OA) monovalent anti-KLK5 antibody with a human IgG1 Fc, with Q38E/Q39K; constant regions and dummy Fc chain not specified) VH: EVQLVESGGGLIQPGGSLRLSCAASGFSLSSYGVSWVRKAPGKGLEYVGFIGSAGFAYYASWAKSRFTISRDNSKNTLYLQMNSLRAEDTAVYYCARDDVGGGKSLDIWGQGTLVTVSS VL: DIQMTQSPSSLSASVGDRVTITCQASQSISSYLSWYQEKPGKAPKLLIYSASTLASGVPSRFSGSGSGTDFTLTISSLQPEDFATYYCHQDYTSYNVDNTFGGGTKVEIK |
| 0.00994 | 2.71e-05 | 2.73e+06 | 0.0154 | 9.18e-05 | 5.97e+06 | OA.hu.9H5.H14L4.G54A.G98Q.S95Y (antibody, V domains shown, One-armed (OA) monovalent anti-KLK5 antibody with a human IgG1 Fc, with Q38E/Q39K; constant regions and dummy Fc chain not specified) VH: EVQLVESGGGLIQPGGSLRLSCAASGFSLSSYGVSWVRKAPGKGLEYVGFIGSAGFAYYASWAKSRFTISRDNSKNTLYLQMNSLRAEDTAVYYCARDDVQGGKSLDIWGQGTLVTVSS VL: DIQMTQSPSSLSASVGDRVTITCQASQSISSYLSWYQEKPGKAPKLLIYSASTLASGVPSRFSGSGSGTDFTLTISSLQPEDFATYYCHQDYTSYNVDNTFGGGTKVEIK |
| 0.000348 | 2.97e-06 | 8.54e+06 | 0.00298 | 6.52e-05 | 2.19e+07 | OA.hu.9H5.H14L4.G54A.G98Q.H89V (antibody, V domains shown, One-armed (OA) monovalent anti-KLK5 antibody with a human IgG1 Fc, with Q38E/Q39K; constant regions and dummy Fc chain not specified) VH: EVQLVESGGGLIQPGGSLRLSCAASGFSLSSYGVSWVRKAPGKGLEYVGFIGSAGFAYYASWAKSRFTISRDNSKNTLYLQMNSLRAEDTAVYYCARDDVQGGKSLDIWGQGTLVTVSS VL: DIQMTQSPSSLSASVGDRVTITCQASQSISSYLSWYQEKPGKAPKLLIYSASTLASGVPSRFSGSGSGTDFTLTISSLQPEDFATYYCVQDYTSSNVDNTFGGGTKVEIK |
